Data set [1] relates to T1, cyclic peptide P1, c(RLsKDK), cyclo(Arg-Leu-{β-Ser}-Lys-Asp-Lys).
T1 sequence: RLSKDK

Data set [2] relates to T2, cyclic peptide P2, c(rLSKDK).
T2 sequence: RLSKDK

Data set [3] deals with T3, cyclic peptide P3, c(RlSKDK).
T3 sequence: RLSKDK

Turning to purified recombinant ADAM8, the “ADAM8 proteolytic activity, fluorogenic CD23 peptide, peptides at 100 nM” value in data set [1] is “cyclic peptide P1 showed the most marked inhibition”; in data set [2], “Cyclic peptides P2 and P3 showed inhibition of ADAM8 proteolytic activity”; in data set [3], “Cyclic peptides P2 and P3 showed inhibition of ADAM8 proteolytic activity”.

For the origin of these results see patent US20170107258.
